# Data: PMC9491610
# B1: Stu2-HA (wild-type Stu2, 3xHA tagged) [S. cerevisiae] / γ-tubulin (Tub4) [S. cerevisiae (endogenous in yeast extract)] (parent)
# chain 1: MSGEEEVDYTTLPLEERLTYKLWKARLEAYKELNQLFRNSVGDISRDDNIQIYWRDPTLFAQYITDSNVVAQEQAIVALNSLIDAFASSSLKNAHNITLISTWTPLLVEKGLTSSRATTKTQSMSCILSLCGLDTSITQSVELVIPFFEKKLPKLIAAAANCVYELMAAFGLTNVNVQTFLPELLKHVPQLAGHGDRNVRSQTMNLIVEIYKVTGNNSDLLEEILFKKLKPIQVKDLHKLFAKVGDEPSSSKMLFEWEKRELEKKRSQEEEARKRKSILSNDEGEYQIDKDGDTLMGMETDMPPSKQQSGVQIDTFSMLPEETILDKLPKDFQERITSSKWKDRVEALEEFWDSVLSQTKKLKSTSQNYSNLLGIYGHIIQKDANIQAVALAAQSVELICDKLKTPGFSKDYVSLVFTPLLDRTKEKKPSVIEAIRKALLTICKYYDPLASSGRNEDMLKDILEHMKHKTPQIRMECTQLFNASMKEEKDGYSTLQRYLKDEVVPIVIQIVNDTQPAIRTIGFESFAILIKIFGMNTFVKTLEHLDNLKRKKIEETVKTLPNFSIASGSTHSTIETNKQTGPMENKFLLKKSSVLPSKRVASSPLRNDNKSKVNPIGSVASASKPSMVAANNKSRVLLTSKSLATPKNVVANSTDKNEKLIEEYKYRLQKLQNDEMIWTKERQSLLEKMNNTENYKIEMIKENEMLREQLKEAQSKLNEKNIQLRSKEIDVNKLSDRVLSLENELRNMEIELDRNKKRNDTNLQSMGTISSYSIPSSTVSSNYGVKSLSSALPFKEEEDVRRKEDVNYERRSSESIGDLPHRVNSLNIRPYRKNGTGVSSVSDDLDIDFNDSFASEESYKRAAAVTSTLKARIEKMKAKSRREGTTRT
# chain 2: MGGEIITLQAGQCGNHVGKFLWSQLAKEHAIGTDGLSQLPDSSTERDDDTKPFFRENSRNKFTPRAIMMDSEPSVIADVENTFRGFFDPRNTWVASDGASAGNSWANGYDIGTRNQDDILNKIDKEIDSTDNFEGFQLLHSVAGGTGSGLGSNLLEALCDRYPKKILTTYSVFPARSSEVVVQSYNTILALRRLIEDSDATVVFDNASLLNISGKVFRNPNIDLQHTNQLISTIISSVTNSIRFPSYMYSSMSSIYSTLIPSPELHFLSPSFTPFTSDYIHDDIAHKGHSSYDVMLDLLDPSNSLVSTAMNNPTYFNVYNTIIGNVEPRQISRAMTKLQQRIKFPSWSSSAMHVNIGRRSPYLPLQPNENEVSGMMLSNMSTVVNVFENACNTFDKVFAKGAFLNNYNVGDLFQSMQNVQDEFAESREVVQSLMEDYVAAEQDSYLDDVLVDDENMVGELEEDLDADGDHKLV
# Variants of: B1
# Experiment: co-immunoprecipitation, western blot densitometry
# Settings: with γ-tubulin (Tub4) [S. cerevisiae (endogenous in yeast extract)], PBS buffer, three biological replicates, read off a plot; for screen value: parent: 0; for ratio to parent: parent: 1
Variant,screen value,ratio to parent
chain 1 K252R K469R,-0.5,0.7
chain 1 K469R,0.75,2.2
chain 1 K469Q,1.5,4
chain 1 K870R,0.1,1.5
chain 1 K870Q,-0.6,0.9
chain 1 K252R K469R K870R,-3,
chain 1 K252Q K469Q,1,2.5
chain 1 K252Q K469Q K870Q,1.8,5.5
chain 1 K252Q,1.8,7
chain 1 K252R,-0.05,1.2
